“And” between values parts separate entries of the source, which are not always exact repeats. Equal entries are not always repeated.

In general, koff refers to the rate constant with which the complex falls apart. A lower koff goes with slow dissociation. Usually kon stands for a measure of how fast the partners come together. As a reminder, the Kd is the free concentration of one partner at which half of the binding sites on the other are occupied at equilibrium, for simple one-to-one binding.

Common to all, as to settings: remark: other sources report otherwise
Assay [1] deals with T1, Human kallikrein (analyte in the Biacore assay) (human), P03952. Put plainly: SPR, Biacore T200, 25 C, HBS-EP+; antibody captured on the chip through Fc, human kallikrein (activated, purified from human plasma) as analyte. (In general: Surface plasmon resonance follows binding to a sensor surface in real time, without labels.)
T1 sequence (P03952 20-638 limits assumed): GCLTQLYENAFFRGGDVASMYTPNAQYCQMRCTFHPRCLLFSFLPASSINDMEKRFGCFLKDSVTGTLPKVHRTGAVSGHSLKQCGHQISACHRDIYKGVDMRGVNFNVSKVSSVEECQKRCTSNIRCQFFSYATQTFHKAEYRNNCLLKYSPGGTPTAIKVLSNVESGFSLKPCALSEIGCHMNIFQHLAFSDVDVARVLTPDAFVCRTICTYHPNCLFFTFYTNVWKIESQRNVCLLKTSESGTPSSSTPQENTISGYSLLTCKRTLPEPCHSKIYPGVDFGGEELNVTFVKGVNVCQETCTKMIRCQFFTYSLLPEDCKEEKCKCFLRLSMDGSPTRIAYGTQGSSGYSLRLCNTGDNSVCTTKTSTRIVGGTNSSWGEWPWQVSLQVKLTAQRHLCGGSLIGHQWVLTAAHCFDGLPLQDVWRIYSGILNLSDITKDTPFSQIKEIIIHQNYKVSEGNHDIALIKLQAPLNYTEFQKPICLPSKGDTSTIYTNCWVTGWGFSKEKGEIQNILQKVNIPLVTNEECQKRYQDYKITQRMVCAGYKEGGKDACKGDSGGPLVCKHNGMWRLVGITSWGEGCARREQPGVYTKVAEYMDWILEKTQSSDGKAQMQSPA
Assay [2] addresses T1, Human kallikrein (analyte in the …). The assay is described as above. This is another data set of the same source.
The target is the same in assay [3]. Put plainly: SPR, Biacore T200, 25 C, HBS-EP+; antibody captured through Fc, human kallikrein as analyte; full length antibody.

B1: Lanadelumab (full length anti-pKal antibody) (antibody, IgG1, V domains shown)
VH: EVQLLESGGGLVQPGGSLRLSCAASGFTFSHYIMMWVRQAPGKGLEWVSGIYSSGGITVYADSVKGRFTISRDNSKNTLYLQMNSLRAEDTAVYYCAYRRIGVPRRDEFDIWGQGTMVTVSS
VL: DIQMTQSPSTLSASVGDRVTITCRASQSISSWLAWYQQKPGKAPKLLIYKASTLESGVPSRFSGSGSGTEFTLTISSLQPDDFATYYCQQYNTYWTFGQGTKVEIK
For the molecule B1, in assay [1], the koff worked out at 0.000347 s⁻¹ and the on-rate (kon) turned out to be 199000 M⁻¹ s⁻¹. Moreover, in assay [2], the dissociation constant (Kd) is 6.73 nM and 5.76 nM and 5.54 nM; the dissociation rate constant (koff) is 0.000315 s⁻¹ and 0.000297 s⁻¹ and 0.000291 s⁻¹; the association rate constant (kon) was 51500 M⁻¹ s⁻¹ and 52600 M⁻¹ s⁻¹ and 46700 M⁻¹ s⁻¹. Also, the Kd in assay [3] was determined as 1.74 nM.

(Values after patent US20250326861A1.)
